In publication PMC12329595, “Engineered bacteriophytochrome heterodimers for research and applications” (The Journal of Biological Chemistry, 2025):
Numbering of substitutions follows the chain as printed. In names and notes the source's numbering stands.

Experiments:
[1] = biological target: T1, DrBphPRE (full-length DrBphP E306R/R310E) (Deinococcus radiodurans strain R1, UniProt Q9RZA4 1-755, E306R | R310E, biliverdin IXα covalently linked to a conserved cysteine (holoprotein)); assay: SEC; HPLC, bioZen 1.8 μm SEC-3 column, 30 mM Tris/HCl, 150 mM NaCl, pH 8.0 with 10% acetonitrile, 25 °C; full-length DrBphP and DrF1 variants and mixtures; details: both partners purified
T1 construct: Deinococcus radiodurans strain R1 bacteriophytochrome DrBphP, full length; source: E. coli BL21 (DE3), purified (Ni-NTA, SEC)
T1 sequence: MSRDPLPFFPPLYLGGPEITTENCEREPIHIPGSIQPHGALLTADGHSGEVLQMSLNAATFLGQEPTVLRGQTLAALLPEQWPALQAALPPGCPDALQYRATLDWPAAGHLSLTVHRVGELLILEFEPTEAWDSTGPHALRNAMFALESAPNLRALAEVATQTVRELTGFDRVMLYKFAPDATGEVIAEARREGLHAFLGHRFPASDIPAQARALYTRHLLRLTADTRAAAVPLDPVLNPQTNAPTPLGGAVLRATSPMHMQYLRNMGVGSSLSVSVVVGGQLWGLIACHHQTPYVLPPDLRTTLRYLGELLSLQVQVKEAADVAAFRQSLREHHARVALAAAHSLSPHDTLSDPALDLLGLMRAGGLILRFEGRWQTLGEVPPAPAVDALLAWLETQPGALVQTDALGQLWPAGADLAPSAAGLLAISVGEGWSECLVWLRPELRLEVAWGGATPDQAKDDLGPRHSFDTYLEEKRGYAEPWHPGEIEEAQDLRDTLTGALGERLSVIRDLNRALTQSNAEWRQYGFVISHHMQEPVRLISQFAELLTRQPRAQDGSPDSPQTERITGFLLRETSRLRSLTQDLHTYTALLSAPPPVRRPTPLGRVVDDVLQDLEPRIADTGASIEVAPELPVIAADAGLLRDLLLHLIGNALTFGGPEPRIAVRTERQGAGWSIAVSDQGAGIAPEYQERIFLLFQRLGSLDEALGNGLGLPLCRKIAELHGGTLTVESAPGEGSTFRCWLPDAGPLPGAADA

[2] = biological target: the molecule itself; assay: as above

binding result [1]: binds
B1: DrBphPER (full-length DrBphP R141E/E148R) (natural protein)
chain: T1 sequence with R141E, E148R, R306E, E310R
modifications: biliverdin IXα covalently linked to a conserved cysteine (holoprotein)
notes: Deinococcus radiodurans strain R1 bacteriophytochrome DrBphP, full length; source: E. coli BL21 (DE3), purified (Ni-NTA, SEC)
binding result [2]: binds
